In patent KR20150077891A (dated 2015):

How the values were obtained:
[1] = target: T1, NRS (Asparaginyl-tRNA synthetase), recombinant (UniProt O43776 1-548, limits assumed); experiment: Luminex multiplex bead assay, antigen coupled to beads, anti-HA-biotin / SA-PE detection
T1 construct: also called 아스파라기닐딜-tRNA 합성효소
T1 sequence (looked up): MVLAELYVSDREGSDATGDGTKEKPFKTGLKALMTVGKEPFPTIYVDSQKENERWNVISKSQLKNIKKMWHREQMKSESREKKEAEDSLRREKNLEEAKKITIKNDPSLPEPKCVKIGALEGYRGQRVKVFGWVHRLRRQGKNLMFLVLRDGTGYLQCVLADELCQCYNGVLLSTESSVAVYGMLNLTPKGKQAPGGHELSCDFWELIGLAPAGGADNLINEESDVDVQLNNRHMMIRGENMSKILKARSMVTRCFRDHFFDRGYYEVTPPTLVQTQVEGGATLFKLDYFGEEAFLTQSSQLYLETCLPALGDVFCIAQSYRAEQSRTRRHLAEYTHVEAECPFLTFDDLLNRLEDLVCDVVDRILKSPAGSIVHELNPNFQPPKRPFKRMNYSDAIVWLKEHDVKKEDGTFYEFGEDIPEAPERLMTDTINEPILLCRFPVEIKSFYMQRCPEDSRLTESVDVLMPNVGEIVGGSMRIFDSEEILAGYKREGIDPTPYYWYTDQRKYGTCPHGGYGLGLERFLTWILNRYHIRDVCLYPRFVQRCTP

[2] = target: T2, YRS (Tyrosyl-tRNA synthetase), recombinant (UniProt P54577 1-528, limits assumed); experiment: as above
T2 construct: also called 타이로실-tRNA 합성효소
T2 sequence (looked up): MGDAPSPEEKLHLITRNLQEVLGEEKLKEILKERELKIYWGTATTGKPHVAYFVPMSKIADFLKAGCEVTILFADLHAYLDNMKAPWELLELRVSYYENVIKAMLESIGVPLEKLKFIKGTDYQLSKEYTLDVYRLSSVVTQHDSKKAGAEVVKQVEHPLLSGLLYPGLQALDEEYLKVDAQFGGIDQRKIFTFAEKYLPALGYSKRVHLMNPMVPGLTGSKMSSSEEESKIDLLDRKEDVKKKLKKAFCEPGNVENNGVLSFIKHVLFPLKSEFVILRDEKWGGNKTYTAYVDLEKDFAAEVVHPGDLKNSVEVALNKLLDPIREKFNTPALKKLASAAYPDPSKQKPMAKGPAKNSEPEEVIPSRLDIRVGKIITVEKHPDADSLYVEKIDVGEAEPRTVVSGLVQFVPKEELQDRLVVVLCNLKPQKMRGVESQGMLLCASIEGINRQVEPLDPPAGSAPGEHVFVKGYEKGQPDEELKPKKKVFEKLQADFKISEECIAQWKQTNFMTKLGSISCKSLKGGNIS

[3] = target: T3, GRS (Glycyl-tRNA synthetase), recombinant (UniProt P41250 55-739, limits assumed); experiment: as above
T3 construct: also called 글리실-tRNA 합성효소
T3 sequence (looked up): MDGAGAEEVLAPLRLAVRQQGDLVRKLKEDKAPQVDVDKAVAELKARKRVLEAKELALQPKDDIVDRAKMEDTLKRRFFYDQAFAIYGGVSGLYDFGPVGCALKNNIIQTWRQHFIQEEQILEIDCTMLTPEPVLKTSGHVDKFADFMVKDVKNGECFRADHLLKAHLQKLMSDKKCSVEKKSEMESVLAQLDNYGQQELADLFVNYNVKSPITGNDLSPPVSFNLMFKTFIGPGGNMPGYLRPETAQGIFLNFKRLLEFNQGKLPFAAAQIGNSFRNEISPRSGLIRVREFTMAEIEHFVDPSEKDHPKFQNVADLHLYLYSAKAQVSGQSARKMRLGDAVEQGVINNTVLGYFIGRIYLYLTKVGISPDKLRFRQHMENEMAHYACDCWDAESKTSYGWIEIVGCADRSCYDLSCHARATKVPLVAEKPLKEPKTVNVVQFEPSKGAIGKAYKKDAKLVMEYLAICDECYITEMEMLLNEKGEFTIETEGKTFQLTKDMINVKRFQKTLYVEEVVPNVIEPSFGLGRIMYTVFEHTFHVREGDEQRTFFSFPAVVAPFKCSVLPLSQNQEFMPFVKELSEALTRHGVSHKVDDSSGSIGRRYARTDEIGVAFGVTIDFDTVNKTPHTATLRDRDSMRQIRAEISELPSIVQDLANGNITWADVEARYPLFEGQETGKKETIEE

[4] = target: T4, HRS (Histidyl-tRNA synthetase), recombinant (UniProt P12081 1-509, limits assumed); experiment: as above
T4 construct: also called 히스티딜-tRNA 합성효소
T4 sequence (looked up): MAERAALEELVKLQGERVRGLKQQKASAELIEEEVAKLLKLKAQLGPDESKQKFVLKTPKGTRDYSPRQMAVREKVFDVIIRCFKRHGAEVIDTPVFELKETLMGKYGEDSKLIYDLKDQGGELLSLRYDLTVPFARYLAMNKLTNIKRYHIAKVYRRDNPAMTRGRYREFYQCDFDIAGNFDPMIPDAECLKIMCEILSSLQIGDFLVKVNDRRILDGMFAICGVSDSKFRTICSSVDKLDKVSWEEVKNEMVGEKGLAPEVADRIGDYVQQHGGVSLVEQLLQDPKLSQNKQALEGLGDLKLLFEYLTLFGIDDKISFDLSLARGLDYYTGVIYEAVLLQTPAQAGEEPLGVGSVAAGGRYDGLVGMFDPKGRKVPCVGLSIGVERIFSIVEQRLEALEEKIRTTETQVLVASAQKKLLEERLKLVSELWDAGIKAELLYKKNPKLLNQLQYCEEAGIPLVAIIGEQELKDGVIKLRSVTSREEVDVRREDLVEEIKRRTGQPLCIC

[5] = target: T5, AIMP1 (Aminoacyl-tRNA-synthetase-interacting multifunctional protein 1), recombinant (UniProt Q12904 1-312, limits assumed); experiment: as above
T5 construct: also called p43; AIMP1(p43)
T5 sequence (looked up): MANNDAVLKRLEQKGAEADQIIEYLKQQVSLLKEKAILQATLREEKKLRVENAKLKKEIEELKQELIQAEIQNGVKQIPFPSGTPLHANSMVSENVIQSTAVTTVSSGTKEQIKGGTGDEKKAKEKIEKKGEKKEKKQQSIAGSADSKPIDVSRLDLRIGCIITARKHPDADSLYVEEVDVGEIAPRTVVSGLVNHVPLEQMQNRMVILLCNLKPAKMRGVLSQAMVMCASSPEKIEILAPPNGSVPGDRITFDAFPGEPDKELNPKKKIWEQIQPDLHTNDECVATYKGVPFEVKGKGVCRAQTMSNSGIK

[6] = target: T6, SRS (Seryl-tRNA synthetase), recombinant (UniProt P49591 1-514, limits assumed); experiment: as above
T6 construct: also called 세릴-tRNA 합성효소

[7] = target: T7, KRS (Lysyl-tRNA synthetase), recombinant (UniProt Q15046 1-597, limits assumed); experiment: as above
T7 construct: also called 리실-tRNA 합성효소

[8] = target: T8, WRS (tryptophanyl-tRNA synthetase), purified recombinant antigen / standard (human, UniProt P23381 1-471, limits assumed); experiment: SPR (ProteOn XPR36), WRS amine-coupled to GLC chip, scFv 500-30 nM as analyte, 25 C
T8 construct: The recombinant construct used for panning, SPR, Luminex beads and ELISA is not described; also called WRS 항원; 재조합 WRS 표준물질
T8 sequence (looked up): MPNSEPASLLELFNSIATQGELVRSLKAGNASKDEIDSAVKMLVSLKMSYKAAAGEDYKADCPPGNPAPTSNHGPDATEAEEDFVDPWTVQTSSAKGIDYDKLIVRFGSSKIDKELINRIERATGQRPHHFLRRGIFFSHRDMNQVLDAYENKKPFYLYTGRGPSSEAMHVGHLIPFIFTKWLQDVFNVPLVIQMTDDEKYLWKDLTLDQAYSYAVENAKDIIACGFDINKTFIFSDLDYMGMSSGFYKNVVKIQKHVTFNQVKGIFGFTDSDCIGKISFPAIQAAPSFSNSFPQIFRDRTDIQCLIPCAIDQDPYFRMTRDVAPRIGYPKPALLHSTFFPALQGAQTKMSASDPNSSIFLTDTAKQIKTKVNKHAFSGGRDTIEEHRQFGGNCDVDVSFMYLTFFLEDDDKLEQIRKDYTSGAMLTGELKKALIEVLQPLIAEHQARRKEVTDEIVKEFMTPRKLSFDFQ

T7 sequence (Q15046 whole entry): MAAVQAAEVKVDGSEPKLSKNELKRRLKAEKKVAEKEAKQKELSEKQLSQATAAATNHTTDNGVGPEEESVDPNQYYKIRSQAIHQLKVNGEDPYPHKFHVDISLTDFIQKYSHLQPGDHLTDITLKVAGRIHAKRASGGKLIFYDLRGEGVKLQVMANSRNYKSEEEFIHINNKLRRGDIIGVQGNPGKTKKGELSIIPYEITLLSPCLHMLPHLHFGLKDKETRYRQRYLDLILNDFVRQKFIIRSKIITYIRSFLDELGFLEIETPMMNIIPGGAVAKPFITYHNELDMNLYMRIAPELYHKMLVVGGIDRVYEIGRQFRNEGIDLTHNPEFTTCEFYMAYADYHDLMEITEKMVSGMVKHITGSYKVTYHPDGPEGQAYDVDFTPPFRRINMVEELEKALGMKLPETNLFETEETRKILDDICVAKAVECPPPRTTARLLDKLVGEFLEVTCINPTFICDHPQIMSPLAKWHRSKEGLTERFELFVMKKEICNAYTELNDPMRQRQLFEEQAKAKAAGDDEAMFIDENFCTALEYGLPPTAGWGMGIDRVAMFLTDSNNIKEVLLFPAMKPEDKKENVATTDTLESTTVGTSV
T6 sequence (P49591 whole entry): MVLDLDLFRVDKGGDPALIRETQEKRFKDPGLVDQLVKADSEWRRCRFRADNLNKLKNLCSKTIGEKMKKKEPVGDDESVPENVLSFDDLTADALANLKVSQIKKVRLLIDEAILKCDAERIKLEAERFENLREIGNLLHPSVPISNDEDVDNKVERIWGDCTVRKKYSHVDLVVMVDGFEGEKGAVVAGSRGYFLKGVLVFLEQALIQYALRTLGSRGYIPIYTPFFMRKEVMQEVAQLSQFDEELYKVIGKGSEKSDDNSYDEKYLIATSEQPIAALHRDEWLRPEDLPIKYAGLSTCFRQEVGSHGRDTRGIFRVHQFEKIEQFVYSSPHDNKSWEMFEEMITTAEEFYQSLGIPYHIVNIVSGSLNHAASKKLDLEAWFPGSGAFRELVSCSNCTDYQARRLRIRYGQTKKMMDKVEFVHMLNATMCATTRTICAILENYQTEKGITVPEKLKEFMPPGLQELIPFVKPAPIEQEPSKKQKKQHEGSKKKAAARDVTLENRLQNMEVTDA

B1: anti-WRS scFv Biocon-W1 (scFv)
scFv: EVQLLESGGGLVQPGGSLRLSCAASGLAFSDYYMSWVRLAPGKGLEWVSVISPGSGSKYYADSVRGRFTVSRDNSKNTLYLQMNSLRAEDTAVYYCARKNQAFDYWGQGTLVTVSSGGGGSGGGGSGGGGSQSVLTQPPSASGTPGQRVTISCTGSSSNIGSNYVTWYQQLPGTAPKLLIYANSQRPSGVPDRFSGSKSGTSASLAISGLRSEDEADYYCASWDASLSGYVFGGGTKLTVL
notes: Single clone selected from a human VH3-23/VL1g synthetic scFv phage library and expressed in the E. coli periplasm; also called 항 WRS scFv 항체; 본 발명의 항체; not shown: His and HA tags from the pComb3X vector, implied by Ni-NTA purification and anti-HA detection
B1: no binding [1]; no binding [2]; no binding [3]. B1: no binding [4]; no binding [5]; no binding [6]. The binding result [7] was “no binding” and the Kd [8] was 700 nM.
